Here are results for 2 molecules from patent publication US10704030B2, “P450-BM3 variants with improved activity” (Codexis, Inc., priority 2015, dated 2020).

Holding throughout (format): biochemical
Series [1] is described as follows: Validation of generalist properties: oxidation of diclofenac by lyophilized P450-BM3 variant, UPLC-MS. The conditions noted are these: [Diclofenac] = 1 mM; for TON: TON = [substrate]*% conversion/[P450]; for FIOPC (F12): fold improvement over parent MCYP-1.2-F12. In outline:
(§1)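 Lyophilized lysate of E. coli-expressed P450-BM3 variant (stock standardized to 12 μM heme) was incubated 24 h at 30 °C with 1 or 2 mM substrate, 1.0 mM NADP+, 25 mM glucose, 0.5 mg/mL glucose dehydrogenase and 5% DMSO in 100 mM potassium phosphate. Acetonitrile-quenched samples were analyzed by UPLC-MS (positive ESI).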

The nature of series [2]: Validation of generalist properties: oxidation of loratadine by lyophilized P450-BM3 variant, UPLC-MS. The note with it: [Loratadine] = 1 mM; for TON: TON = [substrate]*% conversion/[P450]. In short, it runs like this: as §1
Series [3] can be described thus: Validation of generalist properties: oxidation of imatinib by lyophilized P450-BM3 variant, UPLC-MS. The note with it: [Imatinib] = 1 mM; for TON: TON = [substrate]*% conversion/[P450]; for FIOPC (F12): fold improvement over parent MCYP-1.2-F12. In outline:
as §1

Series [4] is described as follows: Validation of generalist properties: oxidation of gefitinib by lyophilized P450-BM3 variant, UPLC-MS. The note with it: [Gefitinib] = 1 mM; for TON: TON = [substrate]*% conversion/[P450]; for FIOPC (F12): fold improvement over parent MCYP-1.2-F12. In outline:
as §1

B1: Variant 18: P450-BM3 variant of SEQ ID NO:16: K32R; C48S; Y52F; I95P; I176V; L216Y; D232H; E349K; M491A; N574T; E619D; D722S; A767T (protein)
chain: MTIKEMPQPKTFGELKNLPLLNTDKPVQALMRIADELGEIFKFEAPGSVTRFLSSQRLIKEACDESRFDKNLSQALKFARDFLGDGLVTSWTHEPNWKKAHNILLPSFSQQAMKGYHAMMVDIAVQLVQKWERLNADEHIEVSEDMTRLTLDTIGLCGFNYRFNSFYRDQPHPFIVSMVRALDEVMNKLQRANPDDPAYDENKRQCQEDIKVMNDYVDKIIADRKARGEQSHDLLTQMLNGKDPETGEPLDDGNISYQIITFLIAGHETTSGLLSFALYFLVKNPHVLQKVAEEAARVLVDPVPSYKQVKQLKYVGMVLNEALRLWPTAPAFSLYAKEDTVLGGEYPLKKGDEVMVLIPQLHRDKTIWGDDVEEFRPERFENPSAIPQHAFKPFGNGQRACIGQQFALHEATLVLGMMLKHFDFEDHTNYELDIKETLTLKPEGFVVKAKSKKIPLGGIPSPSTEQSAKKVRKKAENAHNTPLLVLYGSNAGTAEGTARDLADIAMSKGFAPQVATLDSHAGNLPREGAVLIVTASYNGHPPDNAKQFVDWLDQASADEVKGVRYSVFGCGDKTWATTYQKVPAFIDETLAAKGAENIADRGEADASDDFEGTYEEWRDHMWSDVAAYFNLDIENSEDNKSTLSLQFVDSAADMPLAKMHGAFSTNVVASKELQQPGSARSTRHLEIELPKEASYQEGDHLGVIPRNYEGIVNRVTARFGLSASQQIRLEAEEEKLAHLPLAKTVSVEELLQYVELQDPVTRTQLRTMAAKTVCPPHKVELEALLEKQAYKEQVLAKRLTMLELLEKYPACEMKFSEFIALLPSIRPRYYSISSSPRVDEKQASITVSVVSGEAWSGYGEYKGIASNYLAELQEGDTITCFISTPQSEFTLPKDPETPLIMVGPGTGVAPFRGFVQARKQLKEQGQSLGEAHLYFGCRSPHEDYLYQEELENAQSEGIITLHTAFSRMPNQPKTYVQHVMEQDGKKLIELLDQGAHFYICGDGSQMAPAVEATLMKSYADVHQVSEADARLWLQQLEEKGRYAKDVWAG
modifications: P450_BM3
notes: C48S; Y52F; I95P; I176V; L216Y; D232H; E349K; M491A; N574T; E619D; D722S; A767T
As to B1, the “% Conv.” value in series [1] was “++++ (15.01-20.00)”; in series [2], “++ (5.01-10.00)”; in series [3], “+++ (10.01-15.00)”; in series [4] it was “++++ (15.01-20.00)”. Moreover, the TON result in series [1] is “‡‡‡‡ (10000-50000)”; in series [2] it was “‡‡‡ (5001-10000)”; in series [3] it was “‡‡‡ (5001-10000)”; in series [4], “‡‡‡‡ (10000-50000)”. The “FIOPC (F12)” value in series [1] is on record as “* (0.0-3.0)”; in series [2] (fold improvement over parent MCYP-1.2-F12) it was “* (0.0-3.0)”; in series [3], “** (3.01-5.0)”; in series [4], “**** (10.01-15.00)”.

B2: Variant 19: P450-BM3 variant of SEQ ID NO:16: C48S; Y52F; I95P; Q111R; I176V; L216Y; D232H; P347T; M491A; N574T; D722S (protein)
chain: MTIKEMPQPKTFGELKNLPLLNTDKPVQALMKIADELGEIFKFEAPGSVTRFLSSQRLIKEACDESRFDKNLSQALKFARDFLGDGLVTSWTHEPNWKKAHNILLPSFSQRAMKGYHAMMVDIAVQLVQKWERLNADEHIEVSEDMTRLTLDTIGLCGFNYRFNSFYRDQPHPFIVSMVRALDEVMNKLQRANPDDPAYDENKRQCQEDIKVMNDYVDKIIADRKARGEQSHDLLTQMLNGKDPETGEPLDDGNISYQIITFLIAGHETTSGLLSFALYFLVKNPHVLQKVAEEAARVLVDPVPSYKQVKQLKYVGMVLNEALRLWPTAPAFSLYAKEDTVLGGEYTLEKGDEVMVLIPQLHRDKTIWGDDVEEFRPERFENPSAIPQHAFKPFGNGQRACIGQQFALHEATLVLGMMLKHFDFEDHTNYELDIKETLTLKPEGFVVKAKSKKIPLGGIPSPSTEQSAKKVRKKAENAHNTPLLVLYGSNAGTAEGTARDLADIAMSKGFAPQVATLDSHAGNLPREGAVLIVTASYNGHPPDNAKQFVDWLDQASADEVKGVRYSVFGCGDKTWATTYQKVPAFIDETLAAKGAENIADRGEADASDDFEGTYEEWREHMWSDVAAYFNLDIENSEDNKSTLSLQFVDSAADMPLAKMHGAFSTNVVASKELQQPGSARSTRHLEIELPKEASYQEGDHLGVIPRNYEGIVNRVTARFGLSASQQIRLEAEEEKLAHLPLAKTVSVEELLQYVELQDPVTRTQLRAMAAKTVCPPHKVELEALLEKQAYKEQVLAKRLTMLELLEKYPACEMKFSEFIALLPSIRPRYYSISSSPRVDEKQASITVSVVSGEAWSGYGEYKGIASNYLAELQEGDTITCFISTPQSEFTLPKDPETPLIMVGPGTGVAPFRGFVQARKQLKEQGQSLGEAHLYFGCRSPHEDYLYQEELENAQSEGIITLHTAFSRMPNQPKTYVQHVMEQDGKKLIELLDQGAHFYICGDGSQMAPAVEATLMKSYADVHQVSEADARLWLQQLEEKGRYAKDVWAG
modifications: P450_BM3
notes: Y52F; I95P; Q111R; I176V; L216Y; D232H; P347T; M491A; N574T; D722S
As for B2, the “% Conv.” value is recorded as “++++ (15.01-20.00)” in series [1], “+++ (10.01-15.00)” in series [2], “+++ (10.01-15.00)” in series [3] and “++++ (15.01-20.00)” in series [4]. Besides, the TON entry in series [1] is reported as “‡‡‡‡ (10000-50000)”; in series [2], “‡‡‡ (5001-10000)”; in series [3], “‡‡‡ (5001-10000)”; in series [4], “‡‡‡‡ (10000-50000)”. Further, the figures for the “FIOPC (F12)” value in series [1], in series [3] and in series [4] were “* (0.0-3.0)”, “** (3.01-5.0)” and “**** (10.01-15.00)”, respectively. The “FIOPC (F02)” value in series [2] (fold improvement over parent MCYP-P1.2-F02) was “* (0.0-3.0)”.
